Our source for the Kd values is publication PMC4828312.

Assay [1] concerns the target Assembled microtubules (containing ~25% of TUBB3) (porcine). The experiment in a line: SPR.
Assay [2] deals with Human recombinant tubulin β-3 (TUBB3) (human) (UniProt Q13509). The assay is described as follows: SPR.
Sequence of Human recombinant tubulin β-3 (TUBB3) (human) (Q13509 whole entry): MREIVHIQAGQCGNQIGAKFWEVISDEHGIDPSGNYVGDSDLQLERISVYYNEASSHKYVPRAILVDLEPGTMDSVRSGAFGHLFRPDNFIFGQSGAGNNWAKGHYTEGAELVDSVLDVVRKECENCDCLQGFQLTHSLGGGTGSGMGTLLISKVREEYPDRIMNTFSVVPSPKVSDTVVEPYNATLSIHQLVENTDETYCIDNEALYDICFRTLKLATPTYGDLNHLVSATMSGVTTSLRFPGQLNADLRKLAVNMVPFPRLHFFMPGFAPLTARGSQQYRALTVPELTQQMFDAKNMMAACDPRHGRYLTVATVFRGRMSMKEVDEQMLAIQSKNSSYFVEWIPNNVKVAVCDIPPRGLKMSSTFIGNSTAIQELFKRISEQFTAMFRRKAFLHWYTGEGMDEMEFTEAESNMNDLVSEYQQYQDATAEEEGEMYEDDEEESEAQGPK

Take “HIV-1 envelope glycoprotein gp120, strain ADA (natural protein)”: the Kd in assay [1] turned out to be 12 nM; in assay [2] it was 10.3 nM.

With “HIV-1 envelope glycoprotein gp120, strain IIIB (from UniProt P04578 33-511) (natural protein)”, the dissociation constant (Kd) in assay [1] was determined as 10 nM. Substance “HIV-1 envelope glycoprotein gp120, strain MN (from UniProt P05877 32-513) (natural protein)” came in with a Kd in assay [1] of 62.7 nM.
